According to the supplement of paper PMC10567573:
± gives the standard deviation.

Assay: protein stability index of a GFP-peptide fusion (GPS, HEK-293T) (PSI 1-6); higher = more stable
[1] = treatment: DMSO, c terminus: a fixed tail appended
[2] = treatment: MLN4924 1 uM, 8 h, c terminus: a fixed tail appended
[3] = treatment: DMSO, c terminus: native
[4] = treatment: MLN4924 1 uM, 8 h, c terminus: native
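Further: 24-mer peptide tiles fused after GFP, lentivirally expressed, FACS-sorted into six equal bins by GFP/DsRed ratio, decoded by Illumina sequencing, PSI is the read-weighted mean bin number.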

Sequence	protein stability index [1]	protein stability index [2]	protein stability index [3]	protein stability index [4]
HNQVEAAWLEGRIRQEFDKLREFL [TRIM35]	3.5 ± 0.52	3.75 ± 0.48	–	–
DSEEEVIERANNVKYGLAATVWSS [ALDH8A1]	4.03 ± 0.17	4.15 ± 0.17	–	–
LAPTFSNLLLQPTTNPHTSASHRP [SMG5]	3.55 ± 0.15	3.61 ± 0.26	–	–
IYGHVTLMRAQRNYMVQTEDQYIF [PTPRD]	2.61 ± 0.58	2.87 ± 1.1	–	–
LREERGHPLHPRHRKAVHLRTRGR [C6orf223]	4.08 ± 0.23	4.06 ± 0.36	–	–
FVQREEQLQFLIRYHRFISFALYL [CDS1]	2.4 ± 0.68	2.68 ± 0.9	–	–
TIAQSLEHSWIKAIRRRNVRGEDS [DAPK3]	3.64 ± 0.41	3.4 ± 0.15	–	–
HSLTPVSSDHLFLFGGFTTDKQPL [KLHDC2]	2.95 ± 0.46	3.21 ± 0.27	–	–
DDPATLGPHLGLRGVPQSTAASS [DYRK1B]	–	–	3.28 ± 0.28	3.29 ± 0.085
TWLPSRAEWLLAVRSIQPEEKERI [AASDHPPT]	3.3 ± 0.31	3.29 ± 0.2	–	–
LWRSRVVPDREEGGSGGGGGGDED [SMAD6]	5.36 ± 0.29	5.45 ± 0.14	–	–
HFKPHGFSSDKAKAGSSEWLAVDG [ATF4]	3.89 ± 0.18	3.91 ± 0.17	–	–
MPLKWKTSSPAIWKFPVPVLKTSR [KLHL13]	2.46 ± 0.052	2.47 ± 0.44	–	–
ADKMTAEEVDQMFQFASIDVAGNL [MYL5]	4.35 ± 0.41	4.47 ± 0.2	–	–
FRNIKQEPFSARVLVLCVFNSILP [SOAT1]	2.9 ± 0.35	2.87 ± 0.59	–	–
VAWCYYSVSLRKAERLRAELLDLK [MYORG]	2.35 ± 0.42	2.15 ± 0.47	–	–
DSNSGCLGDTQFCFRFRQSSGRRV [DENND6A]	3.24 ± 0.35	3.06 ± 0.52	–	–
VQTEDQYQFSYRAALEYLGSFDHY [PTPRD]	2.22 ± 0.26	2.51 ± 0.22	–	–
AEHWTKEHCGAVCFVKDNPQKSYF [WAS]	2.92 ± 0.39	2.98 ± 0.23	–	–
KKKSILMKQLQQQQHSDKTSLQGL [ISL2]	3.86 ± 0.2	4.04 ± 0.27	–	–
ATYISEVHEHDGHLYLGSFRSPFL [APMAP]	2.37 ± 0.4	1.97 ± 0.14	–	–
LLGPATGCLLDDGLEGLFEDIDTS [SERTAD1]	4.27 ± 0.097	4.32 ± 0.37	–	–

Sequence	protein stability index [1]	protein stability index [2]	protein stability index [3]	protein stability index [4]
GFGILGHSQNLAKQQRNEVSFVIH [SEPHS2]	2.25 ± 0.47	2.32 ± 0.32	–	–
SVVTTARMQVLKRQVQSLMVHQRK [SMARCE1]	2.79 ± 0.14	2.94 ± 0.27	–	–
NTVVSTYVTTNVSLIPPRSEQLVN [TMEM106C]	3.04 ± 0.3	3.19 ± 0.24	–	–
RNRLAATKCRKRKLERIARLEDKV [JUNB]	3.78 ± 0.17	3.86 ± 0.12	–	–
HNDLWESWFVPDPAGIFKLNHHS [GLT8D2]	–	–	2.87 ± 0.15	2.9 ± 0.41
SEASIASNLQAMSTQMFQTKRCFR [SMG5]	3.94 ± 0.13	4.08 ± 0.15	–	–
LNIYKTLKTHLIEKGILQPTLKV [CDS1]	–	–	2.71 ± 0.94	2.86 ± 0.8
AERVTLADFKGVLQRPSYKFFFKS [DVL3]	2.29 ± 0.3	2.63 ± 0.44	–	–
DFKEDLKKFRTKSRTWAGEKSKRE [CDC25A]	4.88 ± 0.52	4.92 ± 0.15	–	–
ARNIGFKVNSKKMLGKYNTPVSYR [ACSBG2]	2.32 ± 0.37	2.55 ± 0.14	–	–
KHSTIFDVGENLTVPDEFTVEERQ [SLC25A25]	5.07 ± 0.22	4.98 ± 0.22	–	–
KALEILRKDFSELRSAGVEQLMYI [FAM50A]	2.55 ± 0.31	2.38 ± 0.49	–	–
HRQETVECLKKFNARRKLKGAILT [CAMK2B]	2.79 ± 0.24	2.98 ± 0.29	–	–
AGPNGTLFVADAYKGLFEVNPWKR [APMAP]	2.39 ± 0.28	2.72 ± 0.31	–	–
FVEEIKKLATQHKQLISQTKKKQW [ZMYND11]	2.73 ± 0.77	2.13 ± 0.33	–	–
EADPPASDLPTPQAIEPQAIVQQV [SNX8]	5.34 ± 0.11	5.2 ± 0.24	–	–
LVDVACKHLTDTSHGVRNKCLQLL [INTS4]	2.18 ± 0.49	2.46 ± 0.17	–	–
GEDCKLPPQPCATACKPVIRVPSV [KRT36]	3.3 ± 0.22	3.23 ± 0.22	–	–
GKPLYLIFRNLCQMQEDNSSFSLL [INTS3]	2.37 ± 0.41	2.28 ± 0.38	–	–
VNLEEIPGEGLLISWAFTDRPDLS [C2CD2L]	2.14 ± 0.15	2.08 ± 0.23	–	–
AMSTLGVIEAIAQITVKALPKPPG [PTPRD]	2.21 ± 0.17	2.16 ± 0.26	–	–
HENETLASLKSEAESLKGKLEEER [GNB5]	5.29 ± 0.33	5.34 ± 0.33	–	–

Sequence	protein stability index [1]	protein stability index [2]	protein stability index [3]	protein stability index [4]
LRQFFKQLPSPPFLPAAGTADCR [CEBPD]	–	–	1.89 ± 0.67	2.16 ± 0.28
YPDQSPSEDWTMEERFRPLTFHGL [CLCN6]	3.23 ± 0.18	3.37 ± 0.18	–	–
AKEMSVPFYTSRIDEVLLHQDVDL [GFOD1]	3.74 ± 0.59	3.88 ± 0.35	–	–
SCPEGDASECPQATNAKDSGCSSP [PPEF2]	5.63 ± 0.34	5.7 ± 0.27	–	–
MAETSLLEAGASAASTAAALENLQ [TRIM39]	4.59 ± 0.32	4.4 ± 0.29	–	–
VISQLEQGTELWVAERGTTQGCHP [ZNF8]	3.96 ± 0.29	3.99 ± 0.45	–	–
KSQSLRSVRRSESWARPRPDEERP [RASAL3]	4.89 ± 0.36	4.99 ± 0.12	–	–
ASGLTGFIGLEVVAQLFNCMVGLL [ATL3]	2.26 ± 0.16	2.15 ± 0.1	–	–
NALKDARAKLDELEGALHQAKEEL [KRT71]	5.06 ± 0.38	4.97 ± 0.095	–	–
FQILKYLFQIDVYDFMNSAFSPIV [MIA2]	2.75 ± 0.038	2.85 ± 1	–	–
QSTDGARGKRGYSRGLHAWEISWP [SPSB2]	2.9 ± 0.14	2.75 ± 0.39	–	–
EEDENGLPRRRGLRKKKTTKLRLE [NEUROD6]	4.9 ± 0.28	4.94 ± 0.35	–	–
TCTWKLPTLAKFSPYLGQMINLRR [PRAME]	2.28 ± 0.27	1.89 ± 0.3	–	–
RSREARSRLLLLEQELKTVTYSLL [SMAD6]	2.61 ± 0.36	2.5 ± 0.33	–	–
HSSELTEQKLRACLEGSINEHSAH [RPAIN]	4.55 ± 0.26	4.44 ± 0.12	–	–
KFLAKVNGSDPRSFPLWYEEALKD [MAGEA10]	2.62 ± 0.39	3.06 ± 0.4	–	–
METSPSEEDSFYRSSYPQQQGLGA [TBX5]	4.37 ± 0.073	4.47 ± 0.17	–	–
TIDMGPQLKVVERTRTATMLCAAS [PTPRD]	3.18 ± 0.23	3.49 ± 0.21	–	–
YSIISLLLKDKVRERIQILKTSEV [PTPN9]	2.9 ± 1.2	2.44 ± 0.31	–	–
WMEVLVLGVAQRSLPLQDELAFAE [ESRRA]	3.47 ± 0.63	2.64 ± 0.97	–	–
ELQLSDLLKQGYNKTLLRLRLRKE [PKD2L1]	2.39 ± 0.26	2.76 ± 0.24	–	–
